19 molecules from patent US20060287509A1 (University of California, published 2006) can be followed below.

In assay [1] the target is T1, c-erbB-2 ECD with a Ser-Gly-His6 C-terminal fusion (UniProt P04626 23-652).
T1 construct: extracellular domain; expressed from CHO cells, IMAC purified; coupled to a CM5 chip, adsorbed to polystyrene, or biotinylated and captured on avidin; also called c-erbB-2 extracellular domain; biotinylated c-erbB-2 ECD
Kind of assay: from SPR (BIAcore) Kd values.

In assay [2] the target is T1, c-erbB-2 ECD with a Ser-Gly-His6 …. Kind of assay: SPR (BIAcore). Background: Surface plasmon resonance follows binding to a sensor surface in real time, without labels.

B1: C6-B1D6 (scFv)
scFv: QVQLLQSGAELKKPGESLKISCKGSGYSFTSYWIAWVRQMPGKGLEYMGLIYPGDSDTKYSPSFQGQVTISVDKSVSTAYLQWSSLKPSDSAVYFCARHDVGYCTDRTCAKWPEWMYPWGQGTLVTVSSGGGGSGGGGSGGGGSQSVLTQPPSVSAAPGQKVTISCSGSSSNIGNNYVSWYQQLPGTAPKLLIYGHTNRPAGVPDRFSGSKSGTSASLAISGFRSEDEADYYCASWDYTLSGWVFGGGTKLTVLG
notes: C6MH3-B1 with the library D residues of C6MH3-D6
For the molecule B1, the ΔΔGI in assay [1] is -0.16 kcal/mol.

B2: C6-B47D3 (scFv)
scFv: QVQLLQSGAELKKPGESLKISCKGSGYSFTSYWIAWVRQMPGKGLEYMGLIYPGDSDTKYSPSFQGQVTISVDKSVSTAYLQWSSLKPSDSAVYFCARHDVGYCTDRSCAKWPEWLDNWGQGTLVTVSSGGGGSGGGGSGGGGSQSVLTQPPSVSAAPGQKVTISCSGSSSNIGNNYVSWYQQLPGTAPKLLIYGHTNRPAGVPDRFSGSKSGTSASLAISGFRSEDEADYYCASWDYTLSGWVFGGGTKLTVLG
notes: C6MH3-B47 with the library D residues of C6MH3-D3
In assay [1], B2 gave a ΔΔGI of 0.29 kcal/mol.

B3: C6-B47D2 (scFv)
scFv: QVQLLQSGAELKKPGESLKISCKGSGYSFTSYWIAWVRQMPGKGLEYMGLIYPGDSDTKYSPSFQGQVTISVDKSVSTAYLQWSSLKPSDSAVYFCARHDVGYCTDRSCAKWPEWLGVWGQGTLVTVSSGGGGSGGGGSGGGGSQSVLTQPPSVSAAPGQKVTISCSGSSSNIGNNYVSWYQQLPGTAPKLLIYGHTNRPAGVPDRFSGSKSGTSASLAISGFRSEDEADYYCASWDYTLSGWVFGGGTKLTVLG
notes: C6MH3-B47 with the library D residues of C6MH3-D2
In assay [1], B3 gave a ΔΔGI of 0.62 kcal/mol.

B4: C6ML3-11 (scFv)
scFv: QVQLLQSGAELKKPGESLKISCKGSGYSFTSYWIAWVRQMPGKGLEYMGLIYPGDSDTKYSPSFQGQVTISVDKSVSTAYLQWSSLKPSDSAVYFCARHDVGYCSSSNCAKWPEYFQHWGQGTLVTVSSGGGGSGGGGSGGGGSQSVLTQPPSVSAAPGQKVTISCSGSSSNIGNNYVSWYQQLPGTAPKLLIYGHTNRPAGVPDRFSGSKSGTSASLAISGFRSEDEADYYCAAWDYALWGWVFGGGTKLTVLG
notes: C6.5 with this VL CDR3; C-terminal myc and His6 tags
Turning to B4, the kon (as a rule, a measure of how fast the partners come together) in assay [2] was found to be 610000 M⁻¹ s⁻¹.

B5: C6-B47D1 (scFv)
scFv: QVQLLQSGAELKKPGESLKISCKGSGYSFTSYWIAWVRQMPGKGLEYMGLIYPGDSDTKYSPSFQGQVTISVDKSVSTAYLQWSSLKPSDSAVYFCARHDVGYCTDRSCAKWPEWLHVWGQGTLVTVSSGGGGSGGGGSGGGGSQSVLTQPPSVSAAPGQKVTISCSGSSSNIGNNYVSWYQQLPGTAPKLLIYGHTNRPAGVPDRFSGSKSGTSASLAISGFRSEDEADYYCASWDYTLSGWVFGGGTKLTVLG
notes: C6MH3-B47 with the library D residues of C6MH3-D1
In the case of B5, the ΔΔGI in assay [1] is -0.11 kcal/mol.

B6: C6ML3-23 (scFv)
scFv: QVQLLQSGAELKKPGESLKISCKGSGYSFTSYWIAWVRQMPGKGLEYMGLIYPGDSDTKYSPSFQGQVTISVDKSVSTAYLQWSSLKPSDSAVYFCARHDVGYCSSSNCAKWPEYFQHWGQGTLVTVSSGGGGSGGGGSGGGGSQSVLTQPPSVSAAPGQKVTISCSGSSSNIGNNYVSWYQQLPGTAPKLLIYGHTNRPAGVPDRFSGSKSGTSASLAISGFRSEDEADYYCASWDHSLWGWVFGGGTKLTVLG
notes: as for B4
B6 had a kon in assay [2] of 670000 M⁻¹ s⁻¹.

B7: C6ML3-14 (scFv)
scFv: QVQLLQSGAELKKPGESLKISCKGSGYSFTSYWIAWVRQMPGKGLEYMGLIYPGDSDTKYSPSFQGQVTISVDKSVSTAYLQWSSLKPSDSAVYFCARHDVGYCSSSNCAKWPEYFQHWGQGTLVTVSSGGGGSGGGGSGGGGSQSVLTQPPSVSAAPGQKVTISCSGSSSNIGNNYVSWYQQLPGTAPKLLIYGHTNRPAGVPDRFSGSKSGTSASLAISGFRSEDEADYYCAAWDDPLWGWVFGGGTKLTVLG
notes: as for B4
As to B7, the kon in assay [2] is 770000 M⁻¹ s⁻¹.

B8: C6ML3-1 (scFv)
scFv: QVQLLQSGAELKKPGESLKISCKGSGYSFTSYWIAWVRQMPGKGLEYMGLIYPGDSDTKYSPSFQGQVTISVDKSVSTAYLQWSSLKPSDSAVYFCARHDVGYCSSSNCAKWPEYFQHWGQGTLVTVSSGGGGSGGGGSGGGGSQSVLTQPPSVSAAPGQKVTISCSGSSSNIGNNYVSWYQQLPGTAPKLLIYGHTNRPAGVPDRFSGSKSGTSASLAISGFRSEDEADYYCAAWDYSLWGWVFGGGTKLTVLG
notes: as for B4
The molecule B8 had a kon in assay [2] of 300000 M⁻¹ s⁻¹.

B9: C6ML3-3 (scFv)
scFv: QVQLLQSGAELKKPGESLKISCKGSGYSFTSYWIAWVRQMPGKGLEYMGLIYPGDSDTKYSPSFQGQVTISVDKSVSTAYLQWSSLKPSDSAVYFCARHDVGYCSSSNCAKWPEYFQHWGQGTLVTVSSGGGGSGGGGSGGGGSQSVLTQPPSVSAAPGQKVTISCSGSSSNIGNNYVSWYQQLPGTAPKLLIYGHTNRPAGVPDRFSGSKSGTSASLAISGFRSEDEADYYCATWDYALSGWVFGGGTKLTVLG
notes: as for B4
Take B9: in assay [2], the kon came out at 460000 M⁻¹ s⁻¹.

B10: C6ML3-29 (scFv)
scFv: QVQLLQSGAELKKPGESLKISCKGSGYSFTSYWIAWVRQMPGKGLEYMGLIYPGDSDTKYSPSFQGQVTISVDKSVSTAYLQWSSLKPSDSAVYFCARHDVGYCSSSNCAKWPEYFQHWGQGTLVTVSSGGGGSGGGGSGGGGSQSVLTQPPSVSAAPGQKVTISCSGSSSNIGNNYVSWYQQLPGTAPKLLIYGHTNRPAGVPDRFSGSKSGTSASLAISGFRSEDEADYYCAAWDGTLWGWVFGGGTKLTVLG
notes: as for B4
Molecule B10 had a kon in assay [2] of 1.29e+06 M⁻¹ s⁻¹.

B11: C6ML3-2 (scFv)
scFv: QVQLLQSGAELKKPGESLKISCKGSGYSFTSYWIAWVRQMPGKGLEYMGLIYPGDSDTKYSPSFQGQVTISVDKSVSTAYLQWSSLKPSDSAVYFCARHDVGYCSSSNCAKWPEYFQHWGQGTLVTVSSGGGGSGGGGSGGGGSQSVLTQPPSVSAAPGQKVTISCSGSSSNIGNNYVSWYQQLPGTAPKLLIYGHTNRPAGVPDRFSGSKSGTSASLAISGFRSEDEADYYCAAWDHSLSGWVFGGGTKLTVLG
notes: as for B4
In assay [2], B11 registered an association rate constant (kon) of 710000 M⁻¹ s⁻¹.

B12: C6ML3-12 (scFv)
scFv: QVQLLQSGAELKKPGESLKISCKGSGYSFTSYWIAWVRQMPGKGLEYMGLIYPGDSDTKYSPSFQGQVTISVDKSVSTAYLQWSSLKPSDSAVYFCARHDVGYCSSSNCAKWPEYFQHWGQGTLVTVSSGGGGSGGGGSGGGGSQSVLTQPPSVSAAPGQKVTISCSGSSSNIGNNYVSWYQQLPGTAPKLLIYGHTNRPAGVPDRFSGSKSGTSASLAISGFRSEDEADYYCAAWDYSRSGWVFGGGTKLTVLG
notes: as for B4
On to B12, for which the kon in assay [2] is 450000 M⁻¹ s⁻¹.

B13: C6ML3-4 (scFv)
scFv: QVQLLQSGAELKKPGESLKISCKGSGYSFTSYWIAWVRQMPGKGLEYMGLIYPGDSDTKYSPSFQGQVTISVDKSVSTAYLQWSSLKPSDSAVYFCARHDVGYCSSSNCAKWPEYFQHWGQGTLVTVSSGGGGSGGGGSGGGGSQSVLTQPPSVSAAPGQKVTISCSGSSSNIGNNYVSWYQQLPGTAPKLLIYGHTNRPAGVPDRFSGSKSGTSASLAISGFRSEDEADYYCASWEYSLWGWVFGGGTKLTVLG
notes: as for B4
B13 returned a kon in assay [2] of 400000 M⁻¹ s⁻¹.

B14: C6ML3-19 (scFv)
scFv: QVQLLQSGAELKKPGESLKISCKGSGYSFTSYWIAWVRQMPGKGLEYMGLIYPGDSDTKYSPSFQGQVTISVDKSVSTAYLQWSSLKPSDSAVYFCARHDVGYCSSSNCAKWPEYFQHWGQGTLVTVSSGGGGSGGGGSGGGGSQSVLTQPPSVSAAPGQKVTISCSGSSSNIGNNYVSWYQQLPGTAPKLLIYGHTNRPAGVPDRFSGSKSGTSASLAISGFRSEDEADYYCASWDRPLWGWVFGGGTKLTVLG
notes: as for B4
In assay [2], B14 yielded a kon of 670000 M⁻¹ s⁻¹.

B15: C6ML3-15 (scFv)
scFv: QVQLLQSGAELKKPGESLKISCKGSGYSFTSYWIAWVRQMPGKGLEYMGLIYPGDSDTKYSPSFQGQVTISVDKSVSTAYLQWSSLKPSDSAVYFCARHDVGYCSSSNCAKWPEYFQHWGQGTLVTVSSGGGGSGGGGSGGGGSQSVLTQPPSVSAAPGQKVTISCSGSSSNIGNNYVSWYQQLPGTAPKLLIYGHTNRPAGVPDRFSGSKSGTSASLAISGFRSEDEADYYCAAWDRPLWGWVFGGGTKLTVLG
notes: as for B4
With B15, in assay [2], the off-rate constant (koff) (commonly the first-order rate constant of dissociation) is 0.0013 s⁻¹ and the on-rate (kon) turned out to be 590000 M⁻¹ s⁻¹.

B16: C6ML3-13 (scFv)
scFv: QVQLLQSGAELKKPGESLKISCKGSGYSFTSYWIAWVRQMPGKGLEYMGLIYPGDSDTKYSPSFQGQVTISVDKSVSTAYLQWSSLKPSDSAVYFCARHDVGYCSSSNCAKWPEYFQHWGQGTLVTVSSGGGGSGGGGSGGGGSQSVLTQPPSVSAAPGQKVTISCSGSSSNIGNNYVSWYQQLPGTAPKLLIYGHTNRPAGVPDRFSGSKSGTSASLAISGFRSEDEADYYCAAWDATLWGWVFGGGTKLTVLG
notes: as for B4
B16: the association rate constant (kon) in assay [2] turned out to be 870000 M⁻¹ s⁻¹.

B17: C6ML3-10 (scFv)
scFv: QVQLLQSGAELKKPGESLKISCKGSGYSFTSYWIAWVRQMPGKGLEYMGLIYPGDSDTKYSPSFQGQVTISVDKSVSTAYLQWSSLKPSDSAVYFCARHDVGYCSSSNCAKWPEYFQHWGQGTLVTVSSGGGGSGGGGSGGGGSQSVLTQPPSVSAAPGQKVTISCSGSSSNIGNNYVSWYQQLPGTAPKLLIYGHTNRPAGVPDRFSGSKSGTSASLAISGFRSEDEADYYCAAWEDPWYGWVFGGGTKLTVLG
notes: as for B4
With B17, in assay [2], the kon amounted to 610000 M⁻¹ s⁻¹.

B18: C6ML3-6 (scFv)
scFv: QVQLLQSGAELKKPGESLKISCKGSGYSFTSYWIAWVRQMPGKGLEYMGLIYPGDSDTKYSPSFQGQVTISVDKSVSTAYLQWSSLKPSDSAVYFCARHDVGYCSSSNCAKWPEYFQHWGQGTLVTVSSGGGGSGGGGSGGGGSQSVLTQPPSVSAAPGQKVTISCSGSSSNIGNNYVSWYQQLPGTAPKLLIYGHTNRPAGVPDRFSGSKSGTSASLAISGFRSEDEADYYCASWDYSLSGWVFGGGTKLTVLG
notes: as for B4
In assay [2], B18 displayed a kon of 590000 M⁻¹ s⁻¹.

B19: C6ML3-8 (scFv)
scFv: QVQLLQSGAELKKPGESLKISCKGSGYSFTSYWIAWVRQMPGKGLEYMGLIYPGDSDTKYSPSFQGQVTISVDKSVSTAYLQWSSLKPSDSAVYFCARHDVGYCSSSNCAKWPEYFQHWGQGTLVTVSSGGGGSGGGGSGGGGSQSVLTQPPSVSAAPGQKVTISCSGSSSNIGNNYVSWYQQLPGTAPKLLIYGHTNRPAGVPDRFSGSKSGTSASLAISGFRSEDEADYYCAAWDHLRWGWVFGGGTKLTVLG
notes: as for B4
In the case of B19, the kon in assay [2] turned out to be 650000 M⁻¹ s⁻¹.
